Consider two molecules from publication PMC12393466 (2025).

No end group written: not given here.

For one test, the target named is T1, P01.3 peptide.
T1 chain: KKIVEILKKLVK
The test is described as follows: concentration-dependent circular dichroism (222 nm, 40% TFE). (Circular dichroism is widely used to follow secondary structure.)

In the next test the target is T2, P01.1 peptide.
T2 chain: KKIVTILKKLVK
Described as above.

For orientation: Kd means the concentration at which binding is half-saturated. Low readings indicate tighter binding, high ones weaker binding.

B1: P01.3 peptide (peptide)
chain: Ac-KKIVEILKKLVK-NH2
On to B1, for which the Kd in the test with P01.3 peptide came out at 51.5 µM.

B2: P01.1 peptide (peptide)
chain: KKIVTILKKLVK-NH2
In turn, B2 yielded a Kd in the test with P01.1 peptide of 769 µM.
